As usually defined, the IC50 is the concentration that inhibits the measured activity by half. Read a high IC50 as weaker potency.

Test [1] deals with recombinant human insulin-like growth factor II (IGF-II). Briefly: direct radioligand binding (125I-IGF-II) to FLAG-tagged receptor immunoprecipitated on M2 α-FLAG affinity resin. The conditions noted are these: equimolar amounts of expressed soluble receptors from cell lysates; parent: est. 5800; read off a plot.
Test [2] addresses soluble bovine M6P/IGF2R (mannose 6-phosphate/insulin-like growth factor II receptor) (bovine) (UniProt P08169).
The target is the same in test [3]. Briefly: radioligand binding; competitive displacement of 1.5 nM ^125I-PMP-BSA tracer from soluble bovine M6P/IGF2R coupled to Sepharose 4B; test ligands 1 pM to 10 μM; 50 mM HEPES pH 7.4, 0.15 M NaCl, 0.05% Triton X-100; 16 h at 4°C.
For test [4], the target named is T1, soluble bovine M6P/IGF2R (mannose 6-phosphate/insulin-like growth factor II receptor) (bovine, UniProt P08169 45-2313).
T1 construct: soluble form of the bovine mannose 6-phosphate/IGF-II receptor as it circulates in fetal bovine serum; also called sIGF2R; soluble M6P/IGF2R; source: purified from fetal bovine serum; coupled to Sepharose 4B for the displacement assay
The description is as above. As to conditions: both partners purified.

The target of test [5] is T2, wild-type, full-length ectodomain M6P/IGF2R mini-receptor with C-terminal FLAG (1-15F) (human, UniProt P11717 41-2304).
T2 construct: human M6P/IGF2R, all 15 ectodomain repeats; also called wild-type M6P/IGF2R construct; source: HEK 293, transiently transfected; cell lysates and conditioned media, immunoadsorbed to M2 α-FLAG resin; not shown: FLAG, C-terminal, kept
The test can be described thus: radioligand binding; competitive displacement of 2 nM ^125I-PMP-BSA from FLAG-tagged soluble receptors immunoprecipitated on M2 α-FLAG resin and washed; PMP-ligands 1 pM to 10 μM; assay buffer, 4 h at 4°C. As to conditions: both partners purified.

Test [6] addresses T3, full-length ectodomain M6P/IGF2R mini-receptor with R1325A (repeat 9), C-terminal FLAG (human, UniProt P11717 41-2304, R1325A).
T3 construct: human M6P/IGF2R, all 15 ectodomain repeats, arginine-to-alanine substitution in the 9th domain; also called R1325AF; source: HEK 293, transiently transfected; cell lysates and conditioned media, immunoadsorbed to M2 α-FLAG resin; not shown: FLAG, C-terminal, kept
The test is described as above. As to conditions: both partners purified.

Test [7] has as its target T4, full-length ectodomain M6P/IGF2R mini-receptor with R426A (repeat 3), C-terminal FLAG (human, UniProt P11717 41-2304, R426A).
T4 construct: human M6P/IGF2R, all 15 ectodomain repeats, arginine-to-alanine substitution in the 3rd domain; also called R426A mutant construct; source: HEK 293, transiently transfected; cell lysates and conditioned media, immunoadsorbed to M2 α-FLAG resin; not shown: FLAG, C-terminal, kept
Briefly: radioligand binding; direct binding of ^125I-PMP-BSA or ^125I-hGUS to equimolar FLAG-tagged soluble receptors immunoadsorbed from HEK 293 lysates/conditioned media to M2 α-FLAG resin and washed. The conditions noted are these: both partners purified.

In test [8] the target is T2, wild-type, full-length ectodomain …. The description is as above. As to conditions: both partners purified.
The target of test [9] is T3, full-length ectodomain M6P/IGF2R …. Described as above. The conditions noted are these: both partners purified.

Chain of soluble bovine M6P/IGF2R (mannose 6-phosphate/insulin-like growth factor II receptor) (bovine) (P08169 45-2313): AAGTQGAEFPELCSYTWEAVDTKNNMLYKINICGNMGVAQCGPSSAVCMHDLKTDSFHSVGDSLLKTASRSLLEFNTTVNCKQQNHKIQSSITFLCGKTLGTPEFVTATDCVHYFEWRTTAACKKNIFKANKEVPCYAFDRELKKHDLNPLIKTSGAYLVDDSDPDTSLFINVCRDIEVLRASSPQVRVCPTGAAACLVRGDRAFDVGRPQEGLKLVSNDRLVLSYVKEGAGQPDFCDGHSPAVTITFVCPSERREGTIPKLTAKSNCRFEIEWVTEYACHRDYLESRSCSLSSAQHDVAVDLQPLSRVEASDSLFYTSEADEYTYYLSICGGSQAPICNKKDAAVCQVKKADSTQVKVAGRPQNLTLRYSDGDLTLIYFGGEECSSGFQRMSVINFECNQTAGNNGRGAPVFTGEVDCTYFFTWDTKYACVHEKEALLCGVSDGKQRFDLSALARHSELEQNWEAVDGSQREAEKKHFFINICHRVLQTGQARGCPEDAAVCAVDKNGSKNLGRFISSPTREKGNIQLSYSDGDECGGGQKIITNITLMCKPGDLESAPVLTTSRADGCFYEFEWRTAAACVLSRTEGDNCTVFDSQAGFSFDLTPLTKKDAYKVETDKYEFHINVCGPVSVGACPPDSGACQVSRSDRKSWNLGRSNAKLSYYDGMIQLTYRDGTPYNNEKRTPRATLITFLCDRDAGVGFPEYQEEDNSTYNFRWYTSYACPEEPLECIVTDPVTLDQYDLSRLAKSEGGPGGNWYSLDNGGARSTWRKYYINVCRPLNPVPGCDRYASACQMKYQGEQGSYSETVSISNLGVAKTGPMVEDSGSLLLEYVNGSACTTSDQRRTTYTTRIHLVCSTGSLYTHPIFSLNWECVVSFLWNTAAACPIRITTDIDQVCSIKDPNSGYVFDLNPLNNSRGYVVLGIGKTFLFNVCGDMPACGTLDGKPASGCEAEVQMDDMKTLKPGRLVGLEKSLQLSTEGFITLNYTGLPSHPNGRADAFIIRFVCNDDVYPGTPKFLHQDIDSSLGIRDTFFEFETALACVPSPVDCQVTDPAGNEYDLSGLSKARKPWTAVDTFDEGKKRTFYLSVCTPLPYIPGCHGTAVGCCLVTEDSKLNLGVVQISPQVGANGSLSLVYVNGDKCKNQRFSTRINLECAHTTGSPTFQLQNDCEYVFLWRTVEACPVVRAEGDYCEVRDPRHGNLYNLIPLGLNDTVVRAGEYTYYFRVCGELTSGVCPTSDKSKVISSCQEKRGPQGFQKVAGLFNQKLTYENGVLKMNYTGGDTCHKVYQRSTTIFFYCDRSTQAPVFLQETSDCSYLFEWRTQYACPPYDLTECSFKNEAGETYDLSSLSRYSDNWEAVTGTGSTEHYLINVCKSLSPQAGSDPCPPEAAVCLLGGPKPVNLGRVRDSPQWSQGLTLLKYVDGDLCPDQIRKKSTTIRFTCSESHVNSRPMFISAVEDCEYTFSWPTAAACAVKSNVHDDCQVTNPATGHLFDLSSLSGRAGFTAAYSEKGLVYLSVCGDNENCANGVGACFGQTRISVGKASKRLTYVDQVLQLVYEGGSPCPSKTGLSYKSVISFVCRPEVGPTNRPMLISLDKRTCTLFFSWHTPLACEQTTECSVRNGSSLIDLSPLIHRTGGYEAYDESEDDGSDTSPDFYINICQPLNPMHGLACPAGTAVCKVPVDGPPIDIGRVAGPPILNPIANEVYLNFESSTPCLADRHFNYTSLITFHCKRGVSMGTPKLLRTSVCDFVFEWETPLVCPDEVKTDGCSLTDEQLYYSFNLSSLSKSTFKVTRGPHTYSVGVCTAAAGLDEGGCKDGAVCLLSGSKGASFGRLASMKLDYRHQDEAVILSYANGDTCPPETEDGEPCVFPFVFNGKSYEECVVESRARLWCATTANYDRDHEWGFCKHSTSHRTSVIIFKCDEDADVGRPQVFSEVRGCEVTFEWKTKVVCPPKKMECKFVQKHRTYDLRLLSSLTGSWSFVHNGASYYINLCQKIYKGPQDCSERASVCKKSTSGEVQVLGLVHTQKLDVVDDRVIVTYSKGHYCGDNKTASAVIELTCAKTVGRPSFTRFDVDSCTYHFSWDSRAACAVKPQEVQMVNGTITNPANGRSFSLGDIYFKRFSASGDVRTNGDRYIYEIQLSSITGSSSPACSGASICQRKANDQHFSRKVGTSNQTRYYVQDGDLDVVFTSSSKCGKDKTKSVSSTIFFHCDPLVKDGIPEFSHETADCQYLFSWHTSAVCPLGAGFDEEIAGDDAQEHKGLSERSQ
T1 sequence (P08169 45-2313): as above

In the case of “wild-type, full-length ectodomain M6P/IGF2R mini-receptor with C-terminal FLAG (1-15F) (from UniProt P11717) R1325A”, in test [1], the response was determined as 5000 CPM.
Regarding “wild-type, full-length ectodomain M6P/IGF2R mini-receptor with C-terminal FLAG (1-15F) (from UniProt P11717) R426A”, the response in [1] turned out to be 5300 CPM.
Take “wild-type, full-length ectodomain M6P/IGF2R mini-receptor with C-terminal FLAG (1-15F) (from UniProt P11717) R426A; R1325A”: in [1], the response worked out at 5900 CPM.
As to “pentamannosyl 6-phosphate-derivatized seryl-tyrosyl-lysine (PMP-SYK) (peptide)”, the suppression of growth (MTT, 2 days) of mouse L cells over-expressing the M6P/IGF2R, PMP-SYK 1 pM to 1 μM; blocked by saturating M6P in test [2] was 50%. Also, in test [3], the IC50 worked out at 52 nM and the RBA (relative binding affinity, normalized to free M6P) was 1380.
With “pentamannosyl 6-phosphate-derivatized bovine insulin (PMP-INS) (ligand)”, in [3], the IC50 turned out to be 13 nM and the RBA (relative binding affinity, normalized to free M6P) was 5540.
As to “pentamannosyl 6-phosphate-derivatized lysyl-tyrosyl-lysine (PMP-KYK) (peptide)”, in [3], the IC50 was 120 nM and the RBA (relative binding affinity, normalized to free M6P) stood at 600.

B1: pentamannosyl 6-phosphate-derivatized chicken egg ovalbumin (PMP-OVA) (ligand, UniProt P01012 1-386, looked up)
chain: MGSIGAASMEFCFDVFKELKVHHANENIFYCPIAIMSALAMVYLGAKDSTRTQINKVVRFDKLPGFGDSIEAQCGTSVNVHSSLRDILNQITKPNDVYSFSLASRLYAEERYPILPEYLQCVKELYRGGLEPINFQTAADQARELINSWVESQTNGIIRNVLQPSSVDSQTAMVLVNAIVFKGLWEKAFKDEDTQAMPFRVTEQESKPVQMMYQIGLFRVASMASEKMKILELPFASGTMSMLVLLPDEVSGLEQLESIINFEKLTEWTSSNVMEERKIKVYLPRMKMEEKYNLTSVLMAMGITDVFSSSANLSGISSAESLKISQAVHAAHAEINEAGREVVGSAEAGVDAASVSEEFRADHPFLFCIKHIATNAVLFFGRCVSP
modifications: pentamannosyl 6-phosphate (PMP) coupled by reductive amination, approximately 13 PMP groups
notes: chicken egg white albumin (ovalbumin); source: bought: Sigma (A-5503), conjugated to PMP with NaCNBH3, dialysed and gel filtered (Sephadex G-50)
Turning to B1, in test [4], the IC50 worked out at 21 nM. Besides, the binding result in test [5] and in test [6] was “binds” in each case.

B2: human β-glucuronidase (hGUS) (enzyme, UniProt P08236 23-651, looked up)
chain: LQGGMLYPQESPSRECKELDGLWSFRADFSDNRRRGFEEQWYRRPLWESGPTVDMPVPSSFNDISQDWRLRHFVGWVWYEREVILPERWTQDLRTRVVLRIGSAHSYAIVWVNGVDTLEHEGGYLPFEADISNLVQVGPLPSRLRITIAINNTLTPTTLPPGTIQYLTDTSKYPKGYFVQNTYFDFFNYAGLQRSVLLYTTPTTYIDDITVTTSVEQDSGLVNYQISVKGSNLFKLEVRLLDAENKVVANGTGTQGQLKVPGVSLWWPYLMHERPAYLYSLEVQLTAQTSLGPVSDFYTLPVGIRTVAVTKSQFLINGKPFYFHGVNKHEDADIRGKGFDWPLLVKDFNLLRWLGANAFRTSHYPYAEEVMQMCDRYGIVVIDECPGVGLALPQFFNNVSLHHHMQVMEEVVRRDKNHPAVVMWSVANEPASHLESAGYYLKMVIAHTKSLDPSRPVTFVSNSNYAADKGAPYVDVICLNSYYSWYHDYGHLELIQLQLATQFENWYKKYQKPIIQSEYGAETIAGFHQDPPLMFTEEYQKSLLEQYHLGLDQKRRKYVVGELIWNFADFMTEQSPTRVLGNKKGIFTRQRQPKSAAFLLRERYWKIANETRYPHSVAKSQCLENSLFT
modifications: multiple high-mannose N-linked oligosaccharides capped with M6P; ^125I-labelled (IODOGEN) where used as tracer
notes: human β-glucuronidase, a homotetrameric lysosomal enzyme; source: purified human β-glucuronidase provided by Dr. William S. Sly
For B2, the binding result in test [7], in test [8] and in test [9] was “binds” throughout.

Values taken from publication PMC5308735, “Inhibition of insulin-like growth factor II (IGF-II)-dependent cell growth by multidentate pentamannosyl 6-phosphate-based ligands targeting the mannose 6-phosphate/IGF-II receptor” (Oncotarget, 2016).
